Key:
Test in all cases: cell-based or functional assay
ALK4(h) (human) = target: T1, ALK4(h) (human) (UniProt P36896)
T1 sequence (looked up): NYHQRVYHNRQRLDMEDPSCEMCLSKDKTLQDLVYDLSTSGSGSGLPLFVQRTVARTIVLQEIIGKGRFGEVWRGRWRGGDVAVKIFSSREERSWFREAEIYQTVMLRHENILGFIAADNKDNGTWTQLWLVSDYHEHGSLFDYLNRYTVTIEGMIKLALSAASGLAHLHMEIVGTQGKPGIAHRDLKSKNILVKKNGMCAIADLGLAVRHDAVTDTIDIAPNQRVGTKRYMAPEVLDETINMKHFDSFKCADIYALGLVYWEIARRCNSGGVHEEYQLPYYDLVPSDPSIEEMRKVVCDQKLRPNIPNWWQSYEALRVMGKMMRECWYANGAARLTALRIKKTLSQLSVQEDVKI

Aurora-B(h) (human) = Aurora-B(h) (human) (UniProt Q96GD4)
[1] = target: CDK9/cyclin T1(h) (human) (UniProt P50750)
EphA5(h) (human) = target: T2, EphA5(h) (human) (UniProt P54756)
T2 sequence (looked up): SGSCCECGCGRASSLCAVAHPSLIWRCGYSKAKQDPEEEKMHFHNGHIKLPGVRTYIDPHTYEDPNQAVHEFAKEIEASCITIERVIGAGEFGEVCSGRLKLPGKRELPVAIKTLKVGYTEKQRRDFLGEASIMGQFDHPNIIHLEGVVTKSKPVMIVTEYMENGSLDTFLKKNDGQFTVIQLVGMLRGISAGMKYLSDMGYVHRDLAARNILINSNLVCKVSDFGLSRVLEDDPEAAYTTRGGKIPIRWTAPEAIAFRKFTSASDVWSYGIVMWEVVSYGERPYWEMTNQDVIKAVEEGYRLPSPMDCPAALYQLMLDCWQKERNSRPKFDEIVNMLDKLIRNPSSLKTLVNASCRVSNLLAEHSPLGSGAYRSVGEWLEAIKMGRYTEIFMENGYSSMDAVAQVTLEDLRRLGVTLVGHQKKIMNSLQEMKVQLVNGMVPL

Fer(h) (human) = Fer(h) (human) (UniProt P16591)
GRK6(h) (human) = GRK6(h) (human) (UniProt P43250)
Hck(h) (human) = Hck(h) (human) (UniProt P08631)
MLCK(h) (human) = target: MLCK(h) (human)
MRCKβ(h) (human) = MRCKβ(h) (human) (UniProt Q9Y5S2)
Met(h) (human) = Met(h) (human) (UniProt P08581)
NEK11(h) (human) = target: T3, NEK11(h) (human) (UniProt Q8NG66)
T3 sequence (looked up): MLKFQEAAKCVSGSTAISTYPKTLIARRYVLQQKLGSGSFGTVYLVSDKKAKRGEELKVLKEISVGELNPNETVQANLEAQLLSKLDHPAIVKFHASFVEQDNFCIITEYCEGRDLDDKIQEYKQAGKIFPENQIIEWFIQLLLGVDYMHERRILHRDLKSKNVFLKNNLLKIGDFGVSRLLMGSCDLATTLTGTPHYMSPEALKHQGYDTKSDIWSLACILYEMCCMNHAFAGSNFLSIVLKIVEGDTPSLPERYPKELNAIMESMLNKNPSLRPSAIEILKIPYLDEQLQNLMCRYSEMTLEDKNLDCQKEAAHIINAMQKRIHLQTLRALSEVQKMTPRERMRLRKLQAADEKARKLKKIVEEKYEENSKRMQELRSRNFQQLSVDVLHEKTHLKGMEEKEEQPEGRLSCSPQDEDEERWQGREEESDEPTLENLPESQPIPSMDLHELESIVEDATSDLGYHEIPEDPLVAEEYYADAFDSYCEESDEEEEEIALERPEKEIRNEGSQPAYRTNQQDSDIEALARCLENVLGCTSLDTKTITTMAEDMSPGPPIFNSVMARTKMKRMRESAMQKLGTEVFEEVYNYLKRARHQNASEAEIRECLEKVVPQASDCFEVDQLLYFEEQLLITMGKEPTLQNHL

NEK2(h) (human) = target: T4, NEK2(h) (human) (UniProt P51955)
T4 sequence (looked up): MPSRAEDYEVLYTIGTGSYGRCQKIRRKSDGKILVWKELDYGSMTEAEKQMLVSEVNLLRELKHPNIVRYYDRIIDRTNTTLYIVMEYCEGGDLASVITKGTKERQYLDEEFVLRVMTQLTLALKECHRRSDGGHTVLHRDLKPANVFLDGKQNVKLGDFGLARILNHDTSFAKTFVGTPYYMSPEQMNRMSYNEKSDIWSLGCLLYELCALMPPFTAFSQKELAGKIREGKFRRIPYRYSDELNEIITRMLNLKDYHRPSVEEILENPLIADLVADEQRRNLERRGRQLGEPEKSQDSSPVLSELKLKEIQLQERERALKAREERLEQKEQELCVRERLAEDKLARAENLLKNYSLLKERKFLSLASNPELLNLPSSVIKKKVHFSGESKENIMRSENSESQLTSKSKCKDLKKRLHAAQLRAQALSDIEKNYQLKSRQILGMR

PKBα(h) (human) = PKBα(h) (human) (UniProt P31749)
PKCγ(h) (human) = PKCγ(h) (human) (UniProt P05129)
Pim-2(h) (human) = Pim-2(h) (human) (UniProt Q9P1W9)
Ron(h) (human) = Ron(h) (human) (UniProt Q04912)
Ros(h) (human) = Ros(h) (human) (UniProt P08922)
SRPK1(h) (human) = SRPK1(h) (human) (UniProt Q96SB4)
STK33(h) (human) = STK33(h) (human) (UniProt Q9BYT3)
Tie2(Y897S)(h) (human) = Tie2(Y897S)(h) (human) (UniProt Q02763)
cKit(h) (human) = cKit(h) (human) (UniProt P10721)
cSRC(h) (human) = cSRC(h) (human) (UniProt P12931)

Tie2(Y897S)(h) (human), sequence (Q02763 771-1124 Y897S limits assumed): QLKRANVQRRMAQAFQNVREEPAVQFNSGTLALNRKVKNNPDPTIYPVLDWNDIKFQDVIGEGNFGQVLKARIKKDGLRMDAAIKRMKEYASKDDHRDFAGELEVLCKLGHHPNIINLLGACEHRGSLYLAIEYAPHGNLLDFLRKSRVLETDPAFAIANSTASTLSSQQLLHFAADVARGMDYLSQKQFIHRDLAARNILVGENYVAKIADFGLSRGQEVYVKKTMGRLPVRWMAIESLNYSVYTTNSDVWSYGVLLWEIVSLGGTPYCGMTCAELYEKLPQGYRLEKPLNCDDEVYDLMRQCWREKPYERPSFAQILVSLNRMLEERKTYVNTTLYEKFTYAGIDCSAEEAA
Aurora-B(h) (human), sequence (Q96GD4 whole entry): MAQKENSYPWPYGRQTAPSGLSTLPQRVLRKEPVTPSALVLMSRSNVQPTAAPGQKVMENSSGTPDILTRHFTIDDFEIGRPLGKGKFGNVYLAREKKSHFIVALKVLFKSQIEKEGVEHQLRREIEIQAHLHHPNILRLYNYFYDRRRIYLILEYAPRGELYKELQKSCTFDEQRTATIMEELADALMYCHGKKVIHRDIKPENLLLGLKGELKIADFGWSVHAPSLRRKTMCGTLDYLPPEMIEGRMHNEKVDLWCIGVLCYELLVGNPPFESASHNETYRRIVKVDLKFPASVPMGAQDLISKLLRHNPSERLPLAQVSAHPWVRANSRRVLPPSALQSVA
Ros(h) (human), sequence (P08922 1883-2347 limits assumed): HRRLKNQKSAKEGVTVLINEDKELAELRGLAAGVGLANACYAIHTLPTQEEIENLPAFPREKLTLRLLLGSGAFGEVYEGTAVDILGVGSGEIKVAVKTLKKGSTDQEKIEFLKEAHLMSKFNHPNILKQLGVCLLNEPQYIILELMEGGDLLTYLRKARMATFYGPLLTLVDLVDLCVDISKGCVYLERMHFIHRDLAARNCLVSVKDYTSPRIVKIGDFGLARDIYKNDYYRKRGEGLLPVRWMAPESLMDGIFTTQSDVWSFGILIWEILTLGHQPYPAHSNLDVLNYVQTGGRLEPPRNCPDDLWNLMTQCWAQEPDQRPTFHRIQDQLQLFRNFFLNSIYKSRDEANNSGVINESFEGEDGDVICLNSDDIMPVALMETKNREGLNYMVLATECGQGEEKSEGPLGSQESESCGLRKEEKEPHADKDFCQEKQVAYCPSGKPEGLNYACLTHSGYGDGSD
MRCKβ(h) (human), sequence (Q9Y5S2 1-473 limits assumed): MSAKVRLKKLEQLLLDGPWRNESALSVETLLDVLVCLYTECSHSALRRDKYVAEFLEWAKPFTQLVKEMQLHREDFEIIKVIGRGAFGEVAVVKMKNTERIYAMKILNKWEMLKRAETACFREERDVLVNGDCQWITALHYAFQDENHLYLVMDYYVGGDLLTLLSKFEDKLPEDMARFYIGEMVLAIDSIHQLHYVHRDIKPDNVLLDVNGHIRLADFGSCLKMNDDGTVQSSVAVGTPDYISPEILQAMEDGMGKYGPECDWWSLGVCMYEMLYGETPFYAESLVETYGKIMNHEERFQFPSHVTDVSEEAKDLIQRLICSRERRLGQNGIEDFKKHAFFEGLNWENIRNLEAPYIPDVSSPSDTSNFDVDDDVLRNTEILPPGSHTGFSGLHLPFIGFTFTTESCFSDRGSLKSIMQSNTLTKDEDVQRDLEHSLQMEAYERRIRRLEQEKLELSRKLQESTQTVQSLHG
cKit(h) (human), sequence (P10721 544-976): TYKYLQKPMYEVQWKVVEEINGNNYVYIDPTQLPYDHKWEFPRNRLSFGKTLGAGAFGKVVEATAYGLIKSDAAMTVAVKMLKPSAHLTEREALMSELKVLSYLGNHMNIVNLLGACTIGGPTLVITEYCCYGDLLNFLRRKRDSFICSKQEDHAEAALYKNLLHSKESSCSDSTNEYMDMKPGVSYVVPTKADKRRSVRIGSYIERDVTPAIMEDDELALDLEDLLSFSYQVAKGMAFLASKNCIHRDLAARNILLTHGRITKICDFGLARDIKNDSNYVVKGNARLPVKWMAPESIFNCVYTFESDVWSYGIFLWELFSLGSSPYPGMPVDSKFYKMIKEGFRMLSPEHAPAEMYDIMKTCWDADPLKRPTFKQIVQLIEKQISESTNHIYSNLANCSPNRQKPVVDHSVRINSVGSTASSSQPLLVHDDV
PKBα(h) (human), sequence (P31749 whole entry): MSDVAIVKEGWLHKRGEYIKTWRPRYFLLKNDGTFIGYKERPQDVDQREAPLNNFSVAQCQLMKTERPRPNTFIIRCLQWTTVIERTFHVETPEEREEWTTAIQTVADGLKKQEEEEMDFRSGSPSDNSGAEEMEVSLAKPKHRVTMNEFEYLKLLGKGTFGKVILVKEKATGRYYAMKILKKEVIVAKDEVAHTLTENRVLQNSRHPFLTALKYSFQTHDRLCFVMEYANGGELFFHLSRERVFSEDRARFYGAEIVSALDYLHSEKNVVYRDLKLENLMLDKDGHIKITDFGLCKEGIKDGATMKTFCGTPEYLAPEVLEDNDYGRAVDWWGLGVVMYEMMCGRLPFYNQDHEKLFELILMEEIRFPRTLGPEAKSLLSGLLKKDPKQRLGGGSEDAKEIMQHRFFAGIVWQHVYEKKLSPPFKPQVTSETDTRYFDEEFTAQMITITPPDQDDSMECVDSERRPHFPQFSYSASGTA
Met(h) (human), sequence (P08581 956-1390 limits assumed): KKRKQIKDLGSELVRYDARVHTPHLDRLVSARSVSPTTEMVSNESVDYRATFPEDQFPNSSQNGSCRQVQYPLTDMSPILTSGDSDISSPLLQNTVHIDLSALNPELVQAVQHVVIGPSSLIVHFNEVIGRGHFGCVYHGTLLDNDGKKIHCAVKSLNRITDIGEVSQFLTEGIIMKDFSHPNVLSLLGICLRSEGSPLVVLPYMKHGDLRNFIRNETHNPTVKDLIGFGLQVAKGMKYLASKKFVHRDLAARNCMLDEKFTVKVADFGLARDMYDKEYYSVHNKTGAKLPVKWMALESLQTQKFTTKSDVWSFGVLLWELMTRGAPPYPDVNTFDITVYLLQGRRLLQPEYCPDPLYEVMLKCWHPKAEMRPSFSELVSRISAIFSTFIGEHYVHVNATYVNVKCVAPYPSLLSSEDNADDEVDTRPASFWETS
Ron(h) (human), sequence (Q04912 983-1400 limits assumed): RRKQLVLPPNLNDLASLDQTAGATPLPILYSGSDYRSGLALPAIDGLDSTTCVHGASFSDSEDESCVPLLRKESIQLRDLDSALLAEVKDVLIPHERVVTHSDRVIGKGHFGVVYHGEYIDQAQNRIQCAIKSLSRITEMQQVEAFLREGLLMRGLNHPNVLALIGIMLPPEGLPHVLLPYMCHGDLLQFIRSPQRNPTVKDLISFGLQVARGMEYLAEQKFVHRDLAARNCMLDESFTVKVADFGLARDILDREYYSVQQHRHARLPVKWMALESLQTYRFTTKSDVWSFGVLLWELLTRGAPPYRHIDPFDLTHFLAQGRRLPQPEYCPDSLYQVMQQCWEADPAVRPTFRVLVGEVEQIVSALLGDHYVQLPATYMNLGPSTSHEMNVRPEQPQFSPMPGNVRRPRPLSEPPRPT

% activity at 100 µM (ALK4(h) (human))	% activity at 100 µM (Aurora-B(h) (human))	% activity at 100 µM [1]	% activity at 100 µM (EphA5(h) (human))	% activity at 100 µM (Fer(h) (human))	% activity at 100 µM (GRK6(h) (human))	% activity at 100 µM (Hck(h) (human))	% activity at 100 µM (MLCK(h) (human))	% activity at 100 µM (MRCKβ(h) (human))	% activity at 100 µM (Met(h) (human))	% activity at 100 µM (NEK11(h) (human))	% activity at 100 µM (NEK2(h) (human))	% activity at 100 µM (PKBα(h) (human))	% activity at 100 µM (PKCγ(h) (human))	% activity at 100 µM (Pim-2(h) (human))	% activity at 100 µM (Ron(h) (human))	% activity at 100 µM (Ros(h) (human))	% activity at 100 µM (SRPK1(h) (human))	% activity at 100 µM (STK33(h) (human))	% activity at 100 µM (Tie2(Y897S)(h) (human))	Substance	further results
140%	128%	91%	18%	130%	147%	72%	2%	83%	65%	53%	78%	57%	89%	76%	93%	95%	90%	45%	83%	MMI-0300 (peptide)	% activity at 100 µM (cKit(h) (human)): 53%; % activity at 100 µM (cSRC(h) (human)): 26%
130%	150%	235%	24%	108%	141%	72%	1%	71%	62%	33%	61%	67%	79%	92%	79%	99%	96%	52%	87%	MMI-0400 (peptide)	% activity at 100 µM (cKit(h) (human)): 43%; % activity at 100 µM (cSRC(h) (human)): 14%
81%	5%	6%	42%	196%	174%	78%	0%	-10%	27%	2%	0%	30%	6%	46%	46%	150%	80%	16%	80%	MMI-0500 (peptide)	% activity at 100 µM (cKit(h) (human)): 45%; % activity at 100 µM (cSRC(h) (human)): 30%

— US20150064134A1
